Laboratory results taken from article PMC10247153.

Legend:
[1] = target: H3K4me3 187 bp mononucleosome (human) (UniProt P68431)
[2] = target: unmodified 187 bp mononucleosome (human) (UniProt P68431); assay: native gel or EMSA; 100 nM nucleosome with various concentrations of KDM5C; 50 mM HEPES pH 7.5, 50 mM KCl, 1 mM BME, 0.01% Tween-20, 0.01% BSA, 5% sucrose; 1 hr on ice; native 7.5% PAGE at 4 °C; apparent dissociation constants from a cooperative binding fit
[3] = target: H3K4me3 187 bp mononucleosome (human) (UniProt P68431); assay: as above
[4] = target: H3K4me3 147 bp mononucleosome (human) (UniProt P68431)
[5] = target: unmodified 147 bp mononucleosome (human) (UniProt P68431); assay: native gel or EMSA; 100 nM nucleosome with various concentrations of KDM5C; 50 mM HEPES pH 7.5, 50 mM KCl, 1 mM BME, 0.01% Tween-20, 0.01% BSA, 5% sucrose; 1 hr on ice; native 7.5% PAGE at 4 °C; apparent dissociation constants from a cooperative binding fit
[6] = target: H3K4me3 147 bp mononucleosome (human) (UniProt P68431); assay: as above
[7] = test system: KDM5C ARID K101A/R107A (Homo sapiens); assay: EMSA; conditions: EMSA: 50 mM HEPES pH 7.5, 50 mM KCl, 1 mM BME, 0.01% Tween-20, 0.01% BSA, 5% sucrose, 1 h on ice; 100 nM nucleosome or 147 bp DNA, 500 nM 20 bp DNA; gel at 4 C.; scale: fold reduction
[8] = test system: KDM5C1-839 D87G (Homo sapiens); assay: EMSA; conditions: apparent Kd, EMSA: 50 mM HEPES pH 7.5, 50 mM KCl, 1 mM BME, 0.01% Tween-20, 0.01% BSA, 5% sucrose, 1 h on ice, 100 nM nucleosome or 147 bp DNA, gel at 4 C.
[9] = test system: KDM5C1-839 (Homo sapiens); assay: EMSA; conditions: EMSA: 50 mM HEPES pH 7.5, 50 mM KCl, 1 mM BME, 0.01% Tween-20, 0.01% BSA, 5% sucrose, 1 h on ice, 100 nM nucleosome or 147 bp DNA, 500 nM 20 bp DNA, gel at 4 C.; for Kd: apparent Kd
[10] = test system: KDM5C1-839 A388P (Homo sapiens); assay: EMSA; conditions: apparent Kd, EMSA: 50 mM HEPES pH 7.5, 50 mM KCl, 1 mM BME, 0.01% Tween-20, 0.01% BSA, 5% sucrose, 1 h on ice, 100 nM nucleosome or 147 bp DNA, gel at 4 C.
[11] = test system: KDM5C1-839 D343A (Homo sapiens); assay: EMSA; conditions: apparent Kd, EMSA: 50 mM HEPES pH 7.5, 50 mM KCl, 1 mM BME, 0.01% Tween-20, 0.01% BSA, 5% sucrose, 1 h on ice, 100 nM nucleosome or 147 bp DNA, gel at 4 C.
[12] = test system: KDM5C1-839 ΔAP (Homo sapiens); assay: EMSA; conditions: apparent Kd, EMSA: 50 mM HEPES pH 7.5, 50 mM KCl, 1 mM BME, 0.01% Tween-20, 0.01% BSA, 5% sucrose, 1 h on ice, 100 nM nucleosome or 147 bp DNA, 500 nM 20 bp DNA, gel at 4 C.
[13] = test system: KDM5C1-839 ΔAP A388P (Homo sapiens); assay: EMSA; conditions: apparent Kd; lower limit, saturation unattainable; EMSA: 50 mM HEPES pH 7.5, 50 mM KCl, 1 mM BME, 0.01% Tween-20, 0.01% BSA, 5% sucrose, 1 h on ice; 100 nM nucleosome or 147 bp DNA, 500 nM 20 bp DNA; gel at 4 C.
[14] = histone H3K4me3, 500 nM 20 bp DNA
[15] = lower limit, saturation unattainable

Chain of KDM5C^1–839 (P41229 1-839): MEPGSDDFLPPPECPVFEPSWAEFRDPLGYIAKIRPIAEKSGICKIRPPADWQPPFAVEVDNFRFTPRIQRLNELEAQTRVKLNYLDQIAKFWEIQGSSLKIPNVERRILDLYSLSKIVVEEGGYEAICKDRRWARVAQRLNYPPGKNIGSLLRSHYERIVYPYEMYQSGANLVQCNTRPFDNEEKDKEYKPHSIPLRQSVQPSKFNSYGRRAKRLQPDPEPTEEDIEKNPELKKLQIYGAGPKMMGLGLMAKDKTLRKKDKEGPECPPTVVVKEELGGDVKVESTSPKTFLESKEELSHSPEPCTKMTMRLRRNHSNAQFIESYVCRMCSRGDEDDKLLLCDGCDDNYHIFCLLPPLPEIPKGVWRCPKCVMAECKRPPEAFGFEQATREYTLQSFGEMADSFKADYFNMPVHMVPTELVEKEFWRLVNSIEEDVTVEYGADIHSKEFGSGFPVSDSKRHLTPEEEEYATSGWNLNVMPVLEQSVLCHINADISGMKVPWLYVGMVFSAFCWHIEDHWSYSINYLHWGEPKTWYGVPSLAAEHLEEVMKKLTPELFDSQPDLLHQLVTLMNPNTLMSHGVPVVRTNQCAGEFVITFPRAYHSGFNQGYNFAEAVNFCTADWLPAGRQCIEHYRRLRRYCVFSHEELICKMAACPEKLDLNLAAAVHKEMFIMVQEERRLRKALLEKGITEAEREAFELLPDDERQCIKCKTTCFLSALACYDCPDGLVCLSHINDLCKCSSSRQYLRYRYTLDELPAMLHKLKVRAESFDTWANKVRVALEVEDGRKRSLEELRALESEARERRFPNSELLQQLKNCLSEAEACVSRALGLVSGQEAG

Q: With “KDM5C^1–839 D87G (from UniProt P41229-1 1-839) (domain or fragment)” as the substance, how does the catalytic efficiency kmax/Km^app of demethylation of the 187 bp H3K4me3 nucleosome (TR-FRET, single turnover), against wild type KDM5C^1–839 [1] read?
A: 2 fold

Q: And the Kd [2]?
A: 1 µM

Q: What about the fold gain in affinity against the H3K4me3 core nucleosome [3] of the same substance?
A: 2 fold

Q: And the catalytic efficiency kmax/Km^app of demethylation of the H3K4me3 core nucleosome (TR-FRET, single turnover), increase against wild type KDM5C^1–839 [4]?
A: 3 fold

Q: Which results are given for “KDM5C^1–839 (from UniProt P41229-1 1-839) (domain or fragment)”?
A: fold gain in affinity against the core (147 bp) nucleosome [2]: 3 fold; Kd [5]: 13 µM; Kd [6]: 7 µM; Kd [3]: 7 µM

Q: 147 bp 601 DNA was tested. Which binding signal [7] did it give?
A: 22

Q: How did the Kd [8, 14] turn out when H3K4me3 187 bp nucleosome was run?
A: 1.3 µM

Q: And the Kd ([9]; histone H3K4me3)?
A: 7.3 µM

Q: And the Kd [10, 14]?
A: 1.8 µM

Q: What about the Kd [11, 14] of the same substance?
A: 4.7 µM

Q: What does the source list for unmodified 147 bp core nucleosome?
A: Kd [12, 15]: > 35 µM; Kd [9, 15]: > 12.5 µM; Kd [13]: > 45 µM; Kd ([11]; 500 nM 20 bp …): 8.4 µM

Q: “KDM5C^1–839 D343A (from UniProt P41229-1 1-839) (domain or fragment)” was tested. Which Kd [2] did it give?
A: 3.2 µM

Q: And the Kd [5]?
A: 8.4 µM

Q: What about the Kd [6] of the same substance?
A: 8.9 µM

Q: And the Kd [3]?
A: 4.7 µM

Q: Which Kd ([8]; 500 nM 20 bp …) does the source give for unmodified 187 bp nucleosome here?
A: 1 µM

Q: What about the binding signal ([9]; scale: fold gain in affinity vs 147 bp nucleosome) of the same substance?
A: 3

Q: What about the Kd ([10]; 500 nM 20 bp …) of the same substance?
A: 1 µM

Q: What about the Kd ([11]; 500 nM 20 bp …) of the same substance?
A: 3.2 µM

Q: Which results are given for H3K4me3 147 bp core nucleosome?
A: Kd [8, 14]: 2.3 µM; Kd ([12]; Hill n 2.4, histone H3K4me3): 20 µM; Kd ([9]; Hill n 2.3, histone H3K4me3): 6.9 µM; Kd [10, 14]: 3.7 µM; Kd [11, 14]: 8.9 µM

Q: For “KDM5C^1–839 A388P (from UniProt P41229-1 1-839) (domain or fragment)”, which Kd [2] is on record?
A: 1 µM

Q: What about the fold gain in affinity against the H3K4me3 core nucleosome [3] of the same substance?
A: 2 fold

Q: How did the fold reduction in affinity against KDM5C^1–839 [5] turn out when “KDM5C^(1–839 ΔAP) (from UniProt P41229-1 1-82; P41229-1 379-839) (domain or fragment)” was run?
A: 3 fold

Q: And the fold reduction in affinity against KDM5C^1–839 [6]?
A: 3 fold
